Residue numbers refer to the chain shown, from its start. Names and notes keep the numbering of the source. One block for each molecule: values may come before it.
Tests used:
[1] = target: Pex15p(1-315)His (GST removed by thrombin) (S. cerevisiae) (UniProt Q08215); assay: SEC; 700 kDa fractions of the Pex1/6p/Pex15p complexes pooled, kept 72 h on ice (4 °C), then size exclusion again; anti-His immunoblot, signal intensities
[2] = target: Pex15p(1-315)His (GST removed by thrombin) (S. cerevisiae) (UniProt Q08215); assay: SEC; as a8 but 2.5 mM ATPγS added during thrombin incubation of the wild-type complex
[3] = target: GST-Pex15p(1-315)His (S. cerevisiae) (UniProt Q08215); assay: pull-down; GST-Pex15p(1-315)His incubated with purified proteins, loaded on GSH-agarose, eluted with glutathione; 5 mM ATP; Coomassie and immunoblot, signal intensities of load and eluate
[4] = target: Pex15p(1-315)His (GST removed by thrombin) (S. cerevisiae) (UniProt Q08215); assay: SEC; Pex1/6p/Pex15p complex isolated on GSH-agarose, released by thrombin (GST left on the column), Superose 6 (small-scale and preparative) in presence of ATP; anti-His immunoblot or Coomassie, signal intensities by ImageJ
[5] = target: the molecule itself; assay: SEC; second gel filtration of the purified heterohexameric complexes after incubation at 37 °C
[6] = target: T1, HisPex1p released from HisPex1pGST by thrombin (S. cerevisiae, UniProt P24004 1-1043); assay: SEC; Pex1/6p/Pex15p complex isolated on GSH-agarose, released by thrombin (GST left on the column), Superose 6 (small-scale and preparative) in presence of ATP; anti-His immunoblot or Coomassie, signal intensities by ImageJ; conditions: both partners purified
T1 construct: Pex1p, type II AAA-ATPase peroxin of yeast; The GST tag held the complex on GSH-agarose during purification and stayed on the column after thrombin cleavage; source: E. coli Tuner (DE3), co-purified with HisPex6p (NiNTA-agarose, GSH-agarose, thrombin release); not shown: His6, N-terminal, kept; GST, C-terminal, cleaved
T1 sequence (looked up): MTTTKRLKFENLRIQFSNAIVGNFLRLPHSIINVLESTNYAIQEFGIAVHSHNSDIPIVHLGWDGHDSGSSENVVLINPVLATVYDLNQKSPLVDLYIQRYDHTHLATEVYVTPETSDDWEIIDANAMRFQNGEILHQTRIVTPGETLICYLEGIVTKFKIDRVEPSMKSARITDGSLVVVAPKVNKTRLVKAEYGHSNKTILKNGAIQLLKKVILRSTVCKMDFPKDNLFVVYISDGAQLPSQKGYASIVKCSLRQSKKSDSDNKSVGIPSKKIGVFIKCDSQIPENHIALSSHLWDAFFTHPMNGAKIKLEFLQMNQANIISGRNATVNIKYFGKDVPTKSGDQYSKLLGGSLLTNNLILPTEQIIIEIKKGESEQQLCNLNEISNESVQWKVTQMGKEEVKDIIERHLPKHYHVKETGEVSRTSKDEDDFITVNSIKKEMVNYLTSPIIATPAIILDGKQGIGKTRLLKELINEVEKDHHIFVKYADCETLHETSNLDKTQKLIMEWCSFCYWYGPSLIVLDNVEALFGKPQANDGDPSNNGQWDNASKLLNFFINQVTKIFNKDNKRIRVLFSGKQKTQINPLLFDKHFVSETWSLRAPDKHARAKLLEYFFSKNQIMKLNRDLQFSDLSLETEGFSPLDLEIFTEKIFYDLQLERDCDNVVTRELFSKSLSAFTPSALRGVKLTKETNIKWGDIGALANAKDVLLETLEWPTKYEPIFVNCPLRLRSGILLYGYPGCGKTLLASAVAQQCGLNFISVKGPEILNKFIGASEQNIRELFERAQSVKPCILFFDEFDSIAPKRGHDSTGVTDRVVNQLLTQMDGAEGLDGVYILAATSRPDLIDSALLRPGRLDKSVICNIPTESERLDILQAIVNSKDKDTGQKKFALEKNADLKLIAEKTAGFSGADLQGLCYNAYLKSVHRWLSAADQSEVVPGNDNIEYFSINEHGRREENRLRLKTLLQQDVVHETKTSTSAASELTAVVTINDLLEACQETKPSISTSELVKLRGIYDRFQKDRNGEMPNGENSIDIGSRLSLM

[7] = target: T2, Pex15p(1-315)His (GST removed by thrombin) (S. cerevisiae, UniProt Q08215 1-315); assay: as above; conditions: both partners purified
T2 construct: Pex15p of S. cerevisiae, cytosolic part, residues 1 to 315; Same construct as m10 after thrombin cleavage; detected by anti-His antibodies; Printed mass 36 kDa; alone it eluted at about 100 kDa; also called Pex15pHis; source: E. coli BL21 (DE3), purified (Glutathione Agarose 4B), released from GSH-agarose by thrombin; not shown: GST, N-terminal, cleaved; His6, C-terminal, kept
T2 sequence (looked up): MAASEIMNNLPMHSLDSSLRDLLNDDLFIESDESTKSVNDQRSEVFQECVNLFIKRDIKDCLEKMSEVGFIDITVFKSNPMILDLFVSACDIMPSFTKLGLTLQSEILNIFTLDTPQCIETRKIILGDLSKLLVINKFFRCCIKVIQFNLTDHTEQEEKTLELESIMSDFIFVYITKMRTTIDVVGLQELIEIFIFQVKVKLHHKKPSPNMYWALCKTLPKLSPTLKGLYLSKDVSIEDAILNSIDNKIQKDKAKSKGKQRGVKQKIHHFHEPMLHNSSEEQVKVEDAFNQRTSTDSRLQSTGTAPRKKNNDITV

B1: HisPex1p(D797N) released from its GST fusion (natural protein, S. cerevisiae, UniProt P24004 1-1043, looked up)
chain: T1 sequence (looked up) with D797N
notes: Pex1p of yeast with a mutation of the aspartate of the Walker B motif of the D2 domain; also called Pex1WB^D797N; Pex1pWB^D797N; not shown: His6, N-terminal, kept; GST, C-terminal, cleaved
stoichiometry N [5]: 3

B2: HisPex6p(E832Q) (natural protein, S. cerevisiae, UniProt P33760 1-1030, looked up)
chain: MKASLTFSLSGIYAPCSISRDIYLEYGDKKAECLYGTIRLPQYGPGCTPGKIVHCVLDDSLPFCSIVVPSKLFGFMPTQPTMDFCYFEPILDNVVPVLDSVTFLINEQLYSKLMDLPQEMQQIQFLHYKYNINSMETVVHSRDILTSGLCQILNCSPFPQGLVDFTETQLILVNDTEQKLSALKYANEDEEYALPKIGTNSALSIDLESLPCTISRDLLRPAPHINDDNSIYAFTDAETLLRLDVTSGSFITVSNMGCVRLVKLFVLLLPNGFKKRTIYAPPKIIASFPDCSVVTISKSNIGHTDIPIANQVFISRVGGWLQSQKCFQNIILTTLKKFFSESKRILCQNDLIPIAFDSSMADLNIAEENDESDDEDELGQYYKNDSLVWFFVTSAELDCFSKDNSHFIIDPNRTKLITTNITNRRPLPLSRSNLQRYYGFAETFYYDLHIFPYVRQLVNILETSFNCSQRGITLNASVLLHSTTNNVGKATMVRFASKYLGIHLLEIDCLSLTSNSRQLDSTSKIIGYIRAKCENVLPYASPAVIFLAHLDSILLDVNANQDPEAIKLQKSINFEMSKLLDDFTFKFPGTTFVGSVNNIDNVPSSFRSHMRFEILVPVPSEAQRLRIFQWYLSSHELNRDVQQKVPVSYMDNISFSSLSSYSAGLTPLDIKSIVETARMTATARFYQESKKCGWLPQSILITQEDLSKATSKARNEFSVSIGAPQIPNVTWDDIGGIDFVKGEILDTIDMPLKHPELFTSGMKKRSGILFYGPPGTGKTLMAKAIATNFSLNFFSVKGPELLNMYIGESEANVRRVFQKAREAKPCVIFFDQIDSVAPKRGNQGDSGGVMDRIVSQLLAELDGMSTDADGVFVIGATNRPDLLDEALLRPGRFDKLLYLGIPDTDTKQLNILEALTRKFVLDNDVKLIELAKLCPFNYTGADFYALCSDAMLNAMSRIARMVEKKVSQHNELTGENISTRRWFDKIATKEDTKVVVKMEDFLKAQEQLTPSVSRAELNHYEAVRANFEGA
notes: Pex6p of yeast with the Walker B mutation of the D2 domain; also called Pex6pWB; PEX6WB^E832Q; source: E. coli Tuner (DE3), co-purified with HisPex1pGST; not shown: His6, N-terminal, kept
stoichiometry N [6]: 0.9 Pex6p per Pex1p
stoichiometry N [7]: 1 Pex15p per Pex6p

Second part, the molecule after the results:

percent of Pex15p still bound after 72 h [1]: < 10%
percent of Pex15p still bound after 72 h [2]: 20%
fold binding against single Pex6p [3]: 3 fold
stoichiometry N (Pex15p per Pex1p of the complex) [4]: 0.9
stoichiometry N ([4]; scale: Pex15p per heterohexameric Pex1/6p complex): 3
Molecule: Pex1/6p-complex (recombinant heterohexameric AAA-complex), P24004 1-1043; P33760 1-1030

percent of Pex15p still bound after 72 h [1]: 40%
stoichiometry N (Pex15p per Pex1p of the complex) [4]: 0.9
Molecule: Pex1/6pWB complex (wild-type Pex1p with Pex6p E832Q), P24004 1-1043; P33760 1-1030

— article PMC4740771, “Nucleotide-dependent assembly of the peroxisomal receptor export complex” (Scientific Reports, 2016)
